The target in assay [1] is SARS-CoV-2 spike protein, South African Δ3 B.1.351 variant (pseudovirus RVP-724) (SARS-CoV-2) (UniProt P0DTC2). The experiment in a line: cell-based or functional assay.
In assay [2] the target is SARS-CoV-2 spike protein, N439K variant (pseudovirus RVP-703) (SARS-CoV-2) (UniProt P0DTC2). The experiment in a line: cell-based or functional assay.

“And” between values parts separate entries of the source, which are not always exact repeats. Equal entries are not always repeated.

This note sets out measurements from patent US20220025071A1.

As to “REGN10987 (Imdevimab, biosimilar version) (antibody)”, in assay [1], the EC50 (pM) Neutralization, South Africa B.1.351 was 2.48 pM and 2.37 pM. Further, in assay [2], the EC50 (pM) Neutralization, N439K is 2260 pM and 2220 pM; the fold less potent than REGN10933 in pseudovirus neutralization worked out at 1000 fold.
